Experimental data published in paper doi:10.1101/2022.04.20.488894.

Biological target: α-Synuclein (UniProt P37840)
Experiment: cross-linking

Question: For “α-Synuclein (from UniProt P37840 1-140) (natural protein)”, which P intra (intra-protein character) of the DSBU cross-link Lys-21 to Lys-32 is on record?
Answer: 77%
